Where two headings read alike, the source gives them in different places.
Assays:
human TNFα [1] = molecular target: T1, human TNFα (human, UniProt P01375 77-233); assay: cell-based or functional assay
rhesus TNFα [2] = molecular target: T2, rhesus TNFα (rhesus, UniProt P48094 77-233); assay: cell-based or functional assay
human TNFα [3] = molecular target: T1, human TNFα; assay: cell-based or functional assay; remark: listed apart in the source
human TNFα [4] = molecular target: T1, human TNFα; assay: cell-based or functional assay; remark: listed apart in the source
human TNFα [5] = molecular target: T1, human TNFα; assay: cell-based or functional assay; remark: listed apart in the source
human TNFα [6] = molecular target: T1, human TNFα
human TNFα [7] = molecular target: T1, human TNFα; assay: ELISA, biotinylated TNFα on neutravidin, anti-myc detection; 50% binding
human TNFα [8] = molecular target: T1, human TNFα; remark: listed apart in the source
human TNFα [9] = molecular target: T1, human TNFα; remark: listed apart in the source
human TNFα [10] = molecular target: T1, human TNFα; remark: listed apart in the source
human TNFα [11] = molecular target: T1, human TNFα; assay: competition ELISA, biotinylated TNFα (10 ng/ml) pre-incubated with nanobody, binding to coated Enbrel; 50% inhibition
human TNFα [12] = molecular target: T1, human TNFα; assay: cell-based or functional assay; remark: listed apart in the source
rhesus TNFα [13] = molecular target: T2, rhesus TNFα; assay: cell-based or functional assay; remark: listed apart in the source
human TNFα [14] = molecular target: T1, human TNFα; assay: competition ELISA, biotinylated human TNFα pre-incubated with nanobody, binding to coated Enbrel; 50% inhibition
mouse serum albumin [15] = molecular target: T3, mouse serum albumin (mouse, UniProt P07724 25-608)
T3 construct: On the Biacore chip; also called mouse albumin

human serum albumin = molecular target: T4, human serum albumin (human, UniProt P02768 25-609)
T4 construct: On the Biacore chip; also called human albumin

rhesus serum albumin = molecular target: T5, rhesus serum albumin (rhesus, UniProt Q28522 17-600)
T5 construct: On the Biacore chip; also called rhesus albumin

mouse serum albumin [16] = molecular target: T3, mouse serum albumin; remark: listed apart in the source
Protein A = Protein A (UniProt P38507 37-477)

T5 sequence (Q28522 17-600 limits assumed): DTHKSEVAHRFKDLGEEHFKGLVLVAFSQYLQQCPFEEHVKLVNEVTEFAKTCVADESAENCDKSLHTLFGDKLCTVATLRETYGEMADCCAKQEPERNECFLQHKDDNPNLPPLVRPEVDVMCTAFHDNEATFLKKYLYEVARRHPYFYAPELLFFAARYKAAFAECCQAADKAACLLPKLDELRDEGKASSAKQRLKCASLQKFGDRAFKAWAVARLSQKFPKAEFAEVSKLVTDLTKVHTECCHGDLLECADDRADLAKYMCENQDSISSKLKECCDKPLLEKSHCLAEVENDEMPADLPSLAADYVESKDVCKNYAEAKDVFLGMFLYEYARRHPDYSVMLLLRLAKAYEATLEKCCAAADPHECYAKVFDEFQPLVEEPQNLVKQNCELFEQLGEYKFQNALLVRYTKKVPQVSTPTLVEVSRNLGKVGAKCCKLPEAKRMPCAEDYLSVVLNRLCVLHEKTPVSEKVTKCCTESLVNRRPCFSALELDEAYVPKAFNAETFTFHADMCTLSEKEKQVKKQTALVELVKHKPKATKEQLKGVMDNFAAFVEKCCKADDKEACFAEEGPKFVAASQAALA
T1 sequence (P01375 77-233 limits assumed): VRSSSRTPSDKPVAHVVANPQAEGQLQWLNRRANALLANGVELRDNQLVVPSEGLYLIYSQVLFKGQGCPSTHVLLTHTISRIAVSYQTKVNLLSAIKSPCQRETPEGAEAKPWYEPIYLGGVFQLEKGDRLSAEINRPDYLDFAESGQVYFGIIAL
T3 sequence (P07724 25-608 limits assumed): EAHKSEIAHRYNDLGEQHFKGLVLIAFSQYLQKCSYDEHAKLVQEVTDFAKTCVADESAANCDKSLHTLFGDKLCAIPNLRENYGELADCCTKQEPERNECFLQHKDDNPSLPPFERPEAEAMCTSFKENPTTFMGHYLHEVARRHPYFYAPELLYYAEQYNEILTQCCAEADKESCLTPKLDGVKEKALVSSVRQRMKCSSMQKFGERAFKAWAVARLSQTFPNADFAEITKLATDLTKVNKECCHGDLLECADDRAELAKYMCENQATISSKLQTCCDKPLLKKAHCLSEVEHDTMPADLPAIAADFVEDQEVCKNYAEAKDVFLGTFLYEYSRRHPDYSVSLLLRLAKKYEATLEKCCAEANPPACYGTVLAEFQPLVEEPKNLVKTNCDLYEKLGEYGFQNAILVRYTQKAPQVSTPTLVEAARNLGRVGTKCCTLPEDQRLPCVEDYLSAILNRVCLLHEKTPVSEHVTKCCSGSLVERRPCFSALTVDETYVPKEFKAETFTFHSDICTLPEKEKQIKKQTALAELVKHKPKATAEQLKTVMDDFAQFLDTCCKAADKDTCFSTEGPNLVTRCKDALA
T2 sequence (P48094 77-233 limits assumed): as the sequence (P01375 77-233 limits assumed) above, with R44T, T72N, R138L counted along it

B1: PMP1G5 (TNF2) (VHH)
VHH: QVQLVESGGGLVQAGGSLRLSCAASGRTFSEPSGYTYTIGWFRQAPGKEREFVARIYWSSGLTYYADSVKGRFTISRDIAKNTVDLLMNSLKPEDTAVYYCAARDGIPTSRSVGSYNYWGQGTQVTVSS
notes: also called WT TNF2; not shown: C-terminal c-myc tag and (His)6 tag coded by vector pAX051
EC50 in nM (mean); L929s + Act D cytotoxicity assay, human TNFα @ 0.5 ng/ml (human TNFα [1]): 1.41 nM | EC50 in nM (mean); L929s + Act D cytotoxicity assay, rhesus TNFα @ 0.5 ng/ml (rhesus TNFα [2]): > 50 nM | EC50 in nM (mean); L929s + Act D cytotoxicity assay, human TNFa @ 0.5 ng/ml (human TNFα [3]): 1.41 nM | EC50 in nM (mean); L929s + Act D cytotoxicity assay, human TNFa @ 0.5 ng/ml (human TNFα [4]): 1.41 nM | EC50 in nM; alphaKYM cell assay (10000 c/w), human TNFa @ 1 ng/ml (human TNFα [5]): 4.24 nM | koff (human TNFα [6]): 0.00133 s⁻¹ | EC50 (human TNFα [7]): 0.02 mg/L | koff (human TNFα [8]): 0.000359 s⁻¹ | koff (human TNFα [9]): 0.00083 s⁻¹ | koff (human TNFα [10]): 0.00085 s⁻¹ | IC50 (human TNFα [11]): 3.5 mg/L

B2: TNF2-GS30-TNF2 (TNF8) (VHH)
chain: QVQLVESGGGLVQAGGSLRLSCAASGRTFSEPSGYTYTIGWFRQAPGKEREFVARIYWSSGLTYYADSVKGRFTISRDIAKNTVDLLMNSLKPEDTAVYYCAARDGIPTSRSVGSYNYWGQGTQVTVSSGGGGSGGGGSGGGGSGGGGSGGGGSGGGGSQVQLVESGGGLVQAGGSLRLSCAASGRTFSEPSGYTYTIGWFRQAPGKEREFVARIYWSSGLTYYADSVKGRFTISRDIAKNTVDLLMNSLKPEDTAVYYCAARDGIPTSRSVGSYNYWGQGTQVTVSS
notes: Bivalent nanobody, 30 AA GlySer linker
EC50 in nM (mean); L929s + Act D cytotoxicity assay, human TNFa @ 0.5 ng/ml (human TNFα [12]): 0.007 nM | EC50 in nM (mean); L929s + Act D cytotoxicity assay, rhesus TNFa @ 0.5 ng/ml (rhesus TNFα [13]): 1.03 nM | EC50 in nM; alphaKYM cell assay (10000 c/w), human TNFa @ 1 ng/ml (human TNFα [5]): 0.013 nM | IC50 (human TNFα [14]): 0.023 mg/L

B3: PMP6A8 (ALB2) (VHH)
VHH: AVQLVESGGGLVQGGGSLRLACAASERIFDLNLMGWYRQGPGNERELVATCITVGDSTNYADSVKGRFTISMDYTKQTVYLHMNSLRPEDTGLYYCKIRRTWHSELWGQGTQVTVSS
notes: Class C serum albumin nanobody; not shown: C-terminal c-myc tag and (His)6 tag coded by vector pAX051
difference in affinity for human/rhesus versus mouse serum albumin (mouse serum albumin [15]): 400 fold | Kd (human serum albumin): 0.092 nM | koff (human serum albumin): 7.52e-05 s⁻¹ | kon (human serum albumin): 815000 M⁻¹ s⁻¹ | Kd (rhesus serum albumin): 0.036 nM | koff (rhesus serum albumin): 7.12e-05 s⁻¹ | kon (rhesus serum albumin): 1.94e+06 M⁻¹ s⁻¹ | Kd (mouse serum albumin [16]): 15.7 nM | koff (mouse serum albumin [16]): 0.00307 s⁻¹ | kon (mouse serum albumin [16]): 195000 M⁻¹ s⁻¹ | binding result (Protein A): no binding (tested: 10 uM)

— US20200079844A1 (Ablynx, published 2020)
